Test results as given in the nanobody polyreactivity screen of Harvey et al. (2022).

Experiment: yeast display, Sf9 membrane polyspecificity reagent, FACS + sequencing; frameworks hold sequencing errors
Outline: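 Sorting gates, low and high (top ~1%), were placed on anti-HA fluorescence to track expression and on streptavidin fluorescence to track reagent binding. A clone's polyreactivity label is taken from the gate it came out of. The reagent was 10% biotinylated, detergent-solubilized Sf9 membrane, applied for 1 hour at 4 °C to galactose-induced yeast display cells.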

For “QVQLVESGGGLVQAGGSLRLSCAASGSTFWIYAMGWYRQAPGKERELVAAISWSTGRTYYADSVKGRFTISRDNAKNTVYLQMNSLKPEDTAVYYCNAGPQHNTLKLFYYWGQGTQVTVSS”, which “polyreactivity (PSR sort gate)” value is on record?
Its value is “low polyreactivity”.

Which “polyreactivity (PSR sort gate)” value does the source give for “QVQLVESGGGLVQAGGSLRLSCAASGSTFWKYAMGWYRQAPGKERELVAAINTSGGRTYYADSVKGRCTISRDNAKNTVYLQMNSLKPEDTAVYYCNARQGITYKDGRSIKYDYWGQGTQVTGSS” here?
The value was “high polyreactivity”.

With “QVQLVESGGGLVQAGGSLRLSCAASGSTFWKYAMGWYRQAPGKERELVAAITRNGGRTFYADSVKGRFTISRDNAKNTVYLQMNSLKPEDTAVYYCNATAGHGYYYWGQGTQVTVSS” as the sequence, how does the “polyreactivity (PSR sort gate)” value read?
Its value is “high polyreactivity”.

Which “polyreactivity (PSR sort gate)” value does the source give for “QVQLVESGGGLVQAGGSLRLSCAASGSTFWKYVMGWYRQAPGKVRELVAAITSRGGSTYADSVKGRFTISRDNAKNTVYLQMNSLKPEDTAVYYCAATKFWYYGYDYWGQGTQVTVSS” here?
The value was “low polyreactivity”.

For “QVQLVESGGGLVQAGGSLRLSCAASGSTFWLNAMGWYRPAPGKEWEFVAAITVRGGSTYYADSVKGRFTISRDNAKNTVYLQMNSLKPEDTAVYYCNKGSIEKTEMEYWGQGTQVTVSS”, which “polyreactivity (PSR sort gate)” value is on record?
Its value is “low polyreactivity”.

Which “polyreactivity (PSR sort gate)” value does the source give for “QVQLVESGGGLVQAGGSLRLSCAASGSTFWLYAMGWYRQAPGKERELVAAISSTGNTNYADSVKGRFTISRDNAKNTVYLQMNSLKPEDTAVYYCAADSWDYDSRMDYWGQGTQVTVSS” here?
The value was “low polyreactivity”.

Which “polyreactivity (PSR sort gate)” value does the source give for “QVQLVESGGGLVQAGGSLRLSCAASGSTFWNNAMGWYRQAPGKERELVAVINSSGGSTYYADSVKGRFTISRDNAKNTVYLQMNSLKPEDTAVYYCNADATDSYPEKDEHDSWGQGTQVTVSS” here?
The value was “low polyreactivity”.

For “QVQLVESGGGLVQAGGSLRLSCAASGSTFWPYAMGWCRQAPGKERELVAAITWSGGRTYYADSVKGRFTISRDNAKNTVYLQMYSLKPEDTAVYYCAAYYRQGIAPNGFDYWGQGTQVTVSS”, which “polyreactivity (PSR sort gate)” value is on record?
Its value is “high polyreactivity”.

With “QVQLVESGGGLVQAGGSLRLSCAASGSTFWPYAMGWYRQAPGKERELVAAIRVIGGSTYYADSVKGRFTISRDNAKNSVYLQMNSLKPEDTAVYYCNAYRPGGARFYARYRYDYWGQGTQVTVSS” as the sequence, how does the “polyreactivity (PSR sort gate)” value read?
Its value is “low polyreactivity”.

With “QVQLVESGGGLVQAGGSLRLSCAASGSTFWPYAMGWYRQATGKERELVAAISNGGGTKYADSVKGRFTISRDNAKNTVYLQMNSLKPEDTAVYYCAKTLWTGRAWYDYWGQGTQVTVSS” as the sequence, how does the “polyreactivity (PSR sort gate)” value read?
The value was “high polyreactivity”.

For “QVQLVESGGGLVQAGGSLRLSCAASGSTFWRNALGWYRQAPGKERELVAAITDSGDSTYYADSVKGRFTISRDTAKNTVYLQMHSLKPEDTAVYYCAVDKLSLYGWDEYWGQGTQVTVSS”, which “polyreactivity (PSR sort gate)” value is on record?
The value was “low polyreactivity”.

For “QVQLVESGGGLVQAGGSLRLSCAASGSTFWRYAMGWYRQAPGKERELVAAITSSGDRTYYADSVKGRFTISRDNAKNTVYLQMNSLKPEDTAVYYCAAALWSSRGYYYAYYYWGQGTQVTVSS”, which “polyreactivity (PSR sort gate)” value is on record?
Its value is “high polyreactivity”.

For “QVQLVESGGGLVQAGGSLRLSCAASGSTFWSYAIGWYRQAPGKERELVATISAGGGSTSYADSVKGRFTISRDNAKNTVYLQMNSLKPEDTAVYYCATGYSDSSRYGGYYKFDYWGQGTQVTVSS”, which “polyreactivity (PSR sort gate)” value is on record?
Its value is “low polyreactivity”.

For “QVQLVESGGGLVQAGGSLRLSCAASGSTFWSYAMGWYRQAPGKERELVAVITWSGGSTNYADSVKGRFTISRDNAKNTVYLQMNSLKPEDTAVYYCNAPYYFWSYIYDYLGQGTQVTVSS”, which “polyreactivity (PSR sort gate)” value is on record?
Its value is “low polyreactivity”.

With “QVQLVESGGGLVQAGGSLRLSCAASGSTFWSYTMGWYRQAPGKEREWVAAISRSGGSTYYADSVKGRFTISRDNAKNTVYLQLNSLKPEDTAVYYCAAADRYGSRYYYWGQGTQVTVSS” as the sequence, how does the “polyreactivity (PSR sort gate)” value read?
Its value is “high polyreactivity”.

With “QVQLVESGGGLVQAGGSLRLSCAASGSTFWVYAMGWYRPAPGKERELVAAIDYSGGSTYYADSVKGRFTISRDNAKNTVYLQMNSLKPEDTAVYYGAAGEGQYWLWDGEGEYDYWGQGTQVTVSS” as the sequence, how does the “polyreactivity (PSR sort gate)” value read?
The value was “low polyreactivity”.

For “QVQLVESGGGLVQAGGSLRLSCAASGSTFWYAMGWYRQAPGKERELVAAITARGGRTYYADSVKGRFTISRDNAKNTVYLQMNSLKPEDTAVYYCAAVSTGIGARYNYWGQGTQVTVSS”, which “polyreactivity (PSR sort gate)” value is on record?
Its value is “high polyreactivity”.

Which “polyreactivity (PSR sort gate)” value does the source give for “QVQLVESGGGLVQAGGSLRLSCAASGSTFWYNAMGWYRQAPGKERELVAAISQSGGRTYYADSVKGRFTISRDNAKNTVYLQMNSLKPEDTAVYYCNAVSRDKSLYDYWGQGTQVTVSS” here?
Its value is “high polyreactivity”.

Which “polyreactivity (PSR sort gate)” value does the source give for “QVQLVESGGGLVQAGGSLRLSCAASGSTFWYNAMGWYRQAPGKERELVAAITQSGTRTYYADSVKGRFTISRDNAKNTVFLQMNSLKPEDTAVYYCAAGNAPYYRYGSKKYGYWGQGTQVTVSS” here?
The value was “high polyreactivity”.

With “QVQLVESGGGLVQAGGSLRLSCAASGSTFWYNAMGWYRQAPGKERELVAAITQSGTRTYYADSVKGRFTISRDNAKNTVYLQMNSLKPEDTAVYYCAARGREWYYWGQGTQVTVSS” as the sequence, how does the “polyreactivity (PSR sort gate)” value read?
The value was “high polyreactivity”.

With “QVQLVESGGGLVQAGGSLRLSCAASGSTFWYNAMGWYTQAPGKERELVAAITWTGDGTYYADSVKGRFTISRDNAKNTVYLQMNSLKPEDTAVYYCAAAYFQWSTSIVGLDAWYDYWGQGTQVTVSS” as the sequence, how does the “polyreactivity (PSR sort gate)” value read?
Its value is “low polyreactivity”.

Which “polyreactivity (PSR sort gate)” value does the source give for “QVQLVESGGGLVQAGGSLRLSCAASGSTFWYNMGWYRQAPGKERELVAAISYSSGRTYYADSVKGRFTISRDNAKNTVYLQMNSLKPEDTAVYYCAARYPRTRRYGYWGQGTQVTVSS” here?
The value was “high polyreactivity”.

Which “polyreactivity (PSR sort gate)” value does the source give for “QVQLVESGGGLVQAGGSLRLSCAASGSTFWYYAMGWSRQAPGKERELVAAIRWSDGSTYYADSVKGRFTISRDNAKNTVYLQMNSLKPEDTAVYYCEYYYWGLGTQVTVSS” here?
Its value is “low polyreactivity”.

With “QVQLVESGGGLVQAGGSLRLSCAASGSTFWYYGMGWYRQAPGKERELVAAITRGGSTYYADSVKGRFTISRDNAKNTVYLQMNSLKPEDTAVYYCAAGISVRWSPSYYYWGQGTQVTVSS” as the sequence, how does the “polyreactivity (PSR sort gate)” value read?
The value was “high polyreactivity”.

With “QVQLVESGGGLVQAGGSLRLSCAASGSTFWYYVMGWYRQAPGKERELVAAISTRGDSTYYADSVKGRFTISRDNAKITVYFQMNSLKPEDTAVFDCAKSRQYSGRVRFDYWGKGTQVTVSS” as the sequence, how does the “polyreactivity (PSR sort gate)” value read?
Its value is “low polyreactivity”.

With “QVQLVESGGGLVQAGGSLRLSCAASGSTFYANAMGWYRQAPGKERELVAAISYSGGGTNYADSVKGRFTISRDNAKNTVYLQMISLKPEDTAVYYCAKRRDYDRYRYKKTSSVRGDYWGQGTQVTVSS” as the sequence, how does the “polyreactivity (PSR sort gate)” value read?
Its value is “low polyreactivity”.

For “QVQLVESGGGLVQAGGSLRLSCAASGSTFYAYAMGWYRQAPGKERELVAAIDSGGSTYYADSVKGRFPISRDNAKNTVYFQMNSLNPEDTAVYYCAVRHRYTRAYWGRDYWGQGTQVTVSS”, which “polyreactivity (PSR sort gate)” value is on record?
The value was “low polyreactivity”.

For “QVQLVESGGGLVQAGGSLRLSCAASGSTFYAYAMGWYRQAPGKERELVAAISSDGTNYADSVKGRFTISRDNAKNTVYLQMNSLKPEDTAVYYCAADEASSRGYYDYDYWGQGTQVTVSS”, which “polyreactivity (PSR sort gate)” value is on record?
Its value is “low polyreactivity”.

With “QVQLVESGGGLVQAGGSLRLSCAASGSTFYAYDMGWYRQAPGKERELVAAISSGGSTYYADSVKGRFTISRDNAKNTVYLQMNSLKPEDTAVYYCAPEYTYELEASEPSDYDYWGQGTQVTVSS” as the sequence, how does the “polyreactivity (PSR sort gate)” value read?
The value was “low polyreactivity”.

Which “polyreactivity (PSR sort gate)” value does the source give for “QVQLVESGGGLVQAGGSLRLSCAASGSTFYAYDMGWYRQAPGKERELVAAISSGGSTYYADSVKGRFTISRDNAKNTVYLQMNSLKPEDTAVYYCATEYTYELEASEPSDYDYWGQGTQVTVSS” here?
The value was “low polyreactivity”.
